Two molecules from patent US20210139554A1 (published 2021) can be followed below.

One may read the Kd as a measure of binding affinity in units of concentration.

One assay deals with T1, cynomolgus monkey IL-2 (cynomolgus monkey, UniProt Q29615 21-154, limits assumed).
T1 construct: also called cyno IL-2
Put plainly: BIACORE. In general terms: Surface plasmon resonance follows binding to a sensor surface in real time, without labels.

The next assay addresses T2, wild-type human IL-2 (human, UniProt P60568 21-153).
T2 construct: The construct used in ELISA and BIACORE is not described; also called hIL-2; WT IL-2
Put plainly: BIACORE.

T1 sequence (Q29615 21-154 limits assumed): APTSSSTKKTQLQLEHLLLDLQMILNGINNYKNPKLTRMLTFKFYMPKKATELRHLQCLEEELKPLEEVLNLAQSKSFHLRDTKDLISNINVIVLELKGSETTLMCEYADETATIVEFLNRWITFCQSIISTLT
T2 sequence (P60568 21-153 limits assumed): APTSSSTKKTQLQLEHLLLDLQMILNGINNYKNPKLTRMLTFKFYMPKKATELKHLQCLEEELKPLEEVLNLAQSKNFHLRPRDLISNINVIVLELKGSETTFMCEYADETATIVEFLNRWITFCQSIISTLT

B1: 2C3 (antibody, V domains shown)
VH: EVQLVQSGAEVKKPGESLKISCKGSGYRFTSYWIGWVRQMPGKGLEWMGIIYPGDSDTRYSPSFQGQVTISADKSISAAYLQWSSLKASDTAMYYCARQQVAGMLDYWGQGTLVTVSS
VL: EIVLTQSPGTLSLSPGERATLSCRASQSFSSSYLVWYQQKPGQAPRLLIYGASSRATGIPDRFGGSGSGTDFTLTISRLEPEDFAVYYCQQYGSSPLTFGGGTKVEIK
B1 registered a Kd with cynomolgus monkey IL-2 of roughly 1.2 nM.

B2: 26H7 (antibody, V domains shown)
VH: EVQLVQSGAEVKKPGESLKISCKGSGYRFTNYWIGWVRQMPGKGLEWMGIIYPGDSDTKYSPSFQGQVTISADKSISTAYLQWSSLKASDTAMYYCARHGGYSGRSYYYGMDVWGQGTAVTVSS
VL: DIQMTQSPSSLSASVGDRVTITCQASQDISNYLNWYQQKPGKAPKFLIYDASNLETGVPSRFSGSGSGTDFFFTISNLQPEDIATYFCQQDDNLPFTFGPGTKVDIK
In the case of B2, in the assay with wild-type human IL-2, the Kd is roughly 1.3 nM.
